The subject of one assay is YVAD-AMC (SEQ ID NO:8). As to the kind of experiment: cleavage of fluorogenic peptide YVAD-AMC by bacterial extracts expressing GST-fusion enzymes. Type of assay: biochemical. To be noted: for ability to cleave the YVAD substrate: total bacterial extracts, GST-fusion proteins. As to the method:
(§1) To determine the enzymatic activity of Mch2, CPP32 or ICE, these enzymes were expressed in E. coli as fusion proteins with glutathione S-transferase (GST). A GST-CPP32-p20 fusion protein that contains amino acids 1-175 of CPP32 and a GST nonfusion protein were used as controls. After induction with IPTG, bacterial extracts were prepared from E. coli expressing the recombinant fusion proteins. The extracts were absorbed to glutathione-Sepharose resin, washed several times and then analyzed by SDS-PAGE. The ICEγ, CPP32 and Mch2α preparations containing GST-fusion proteins ranged in size from ˜28-35 kDa. The GST nonfusion protein control migrated as a ˜27-28 kDa protein. […] Aps26 of ICEγ which corresponds to Asp 119 of ICEα is a site that is cleaved during ICE activation. Cleavage at this site would generate a GST-fusion protein with a predicted molecular mass of ˜29 kDa that might correspond to the 31 kDa band. Cleavage at Asp 3 of ICEγ, although it is not a known ICE cleavage site, could generate the 28 kDa band (lane 2). Similar to the GST-ICEγ preparation, the GST-CPP32 and GST-Mch2 preparations contain smaller than predicted GST fusion products. The GST-CPP32 fusion product migrates as a ˜29-30 kDa protein. Cleavaae at Asp9 or Asp28 of CPP32 would generate products with predicted molecular masses of ˜27.3 kDa or ˜29.4 kDa, respectively. Based on the observed size of the GST-CPP32 product, CPP32 is most probably cleaved at Asp28, although it is possible that both sites are cleaved during CPP32 autoprocessing. Unlike the GST-CPP32 which contains full length CPP32, the GST-CPP32-p20 product which contains a truncated CPP32 migrates as a ˜46 kDa protein that agreed with its predicted molecular mass. […] Therefore if CPP32 is cleaved at Asp28, CPP32 appears to be made up of two subunits of relative molecular masses of 17 kDa and 11 kDa. However, the exact Asp cleavage sites that are utilized to generate active CPP32 remains to be determined by amino acid sequencing. The GST-Mch2α preparation contains two major bands that migrate as ˜31-32 kDa and ˜34-35 kDa proteins. This is consistent with cleavage at Asp23, Asp32 or Asp40 of Mch2α. These GST-Mch2α cleavage products are larger than the GST-CPP32 product because of the presence of extra 33 amino acids in the GST-Mch2α fusion construct that are derived from the 5′ untranslated region of Mch2α. A minor band of ˜27 kDa is also present in this preparation that could be due to cleavage at a site near the C-terminus of the GST peptide itself. The majority of GST-Mch2β was expressed in E. coli in […] and was not cleaved.
After establishing that Mch2 and CPP32 can autoprocess in bacteria, their enzymatic activity were tested using two fluorogenic peptide substrates, YVAD-AMC (SEQ ID NO:8) and DEVD-AMC (SEQ ID NO:3). The YVAD (SEQ ID NO:8) […] is the ICE cleavage site in pro-IL1β and the DEVD (SEQ ID NO:9) tetrapeptide is a site present in PARP that is cleaved by an ICE-like protein during apoptosis. The enzymatic activities of Mch2α, Mch2β, CPP32 and ICEγ, in total bacterial extracts from cells expressing these enzymes as GST-fusion proteins was studied using the YVAD-AMC (SEQ ID NO:8) and DEVD-AMC (SEQ ID NO:3) tetrapeptides as substrates. […] The purified GST-fusion products or the GST control extract had no enzymatic activity with either of the substrates.

The test system of another assay is human PARP. As to the kind of experiment: Western blot analysis of PARP cleavage after incubation with recombinant enzyme. The settings on record: Western blot with 4C10-5 antibody. Type of assay: biochemical. As to the method: In apoptotic cells, nuclear proteins such as PARP, lamins and the 70-kDa protein component of the U1 small nuclear ribonucleoprotein are cleaved specifically by an unknown ICE-like cysteine protease(s). Cleavage of human PARP at the DEVD (SEQ ID NO:9) site (amino acid 211-214) would generate a large protein product of predicted molecular mass of 89.3 kDa (amino acids 215-1014). Western blot analysis of human PARP after incubation with recombinant Mch2α, Mch2β, ICEγ or CPP32 was performed using the 4C10-5 antibody. This antibody recognizes an epitope in the 41 kDa C-terminal chymotryptic fragment of PARP. CPP32 cleaved PARP to generate a major band of ˜90 kDa and a minor band of 57 kDa. The 90 kDa band was most probably generated by cleaving the DEVD (SEQ ID NO:9) site at residue 214 of PARP. This cleavage product is believed to correspond to an 85 kDa PARP cleavage product which has been described in apoptotic cells. The 57 kDa cleavage product is probably generated by cleavage at a site C-terminal to the DEVD (SEQ ID NO:9) site. This product was not detected with the C-2-10 antibody used in a previous study. This is probably because it recognizes an epitope that is N-terminal to the epitope that is recognized by the 4C10-5 antibody used in the present study. Mch2α also cleaved PARP to generate a major product of ˜83 kDa and a minor product of ˜57 kDa similar to that obtained with CPP32. PARP was not cleaved by Mch2β or ICEγ. […] Furthermore, the deletion in Mch2β abrogates its enzymatic activity.

Another assay concerns DEVD-AMC (SEQ ID NO:3). As to the kind of experiment: cleavage of fluorogenic peptide DEVD-AMC by bacterial extracts expressing GST-fusion enzymes. Type of assay: biochemical. To be noted: for ability to cleave the DEVD substrate: total bacterial extracts, GST-fusion proteins. As to the method:
as §1
After establishing that Mch2 and CPP32 can autoprocess in bacteria, their enzymatic activity were tested using two fluorogenic peptide substrates, YVAD-AMC (SEQ ID NO:8) and DEVD-AMC (SEQ ID NO:3). […]

In the next assay the test system is Sf9 cells. As to the kind of experiment: apoptosis of Sf9 cells infected with recombinant baculovirus expressing the protein. To be noted: polyhedron promoter. Type of assay: cell-based, insect. An excerpt: To test whether expression of Mch2α has a similar apoptotic effect, Sf9 cells were infected with a recombinant baculovirus expressing Mch2α or Mch2β under the polyhedron promoter. Cells were also infected with the wild type virus and the recombinant ICE baculovirus as controls.

Data on five molecules can be found in patent publication US6359127B1, “MCH2, an apoptotic cysteine protease, and compositions for making and methods of using the same” (Thomas Jefferson University, priority 1995, dated 2002).

B1: Mch2α: full length Mch2 isoform, 293 amino acid ~34 kDa Ced-3/ICE-like cysteine protease, SEQ ID NO:5 (protein)
chain: MSSASGLRRGHPAGGEENMTETDAFYKREMFDPAEKYKMDHRRRGIALIFNHERFFWHLTLPERRRTCADRDNLTRRFSDLGFEVKCFNDLKAEELLLKIHEVSTVSHADADCFVCVFLSHGEGNHIYAYDAKIEIQTLTGLFKGDKCHSLVGKPKIFIIQACRGNQHDVPVIPLDVVDNQTEKLDTNITEVDAASVYTLPAGADFLMCYSVAEGYYSHRETVNGSWYIQDLCEMLGKYGSSLEFTELLTLVNRKVSQRRVDFCKDPSAIGKKQVPCFASMLTKKLHFFPKSN
B1: in the assay on YVAD-AMC (SEQ ID NO:8), the “ability to cleave the YVAD substrate” value is reported as “No detectable enzymatic activity”. Moreover, in the assay on human PARP, the “cleavage of PARP” value is recorded as “cleaved PARP”. In the assay on DEVD-AMC (SEQ ID NO:3), the “ability to cleave the DEVD substrate” value is “able to cleave”. In the assay on Sf9 cells, the “characteristic signs of apoptosis (membrane blebbing, nuclear fragmentation and condensation, internucleosomal DNA cleavage)” value is recorded as “several characteristic signs of apoptosis”; the “viability of infected cells” value was “decrease in viability”.

B2: ICEγ: isoform of interleukin-1 β converting enzyme (ICE), expressed as GST-fusion protein (protein)
chain: MADKVLKEKRKLFIRSMGEAPQAVQDNPAMPTSSGSEGNVKLCSLEEAQRIWKQKSAEIYPIMDKSSRTRLALIICNEEFDSIPRRTGAEVDITGMTMLLQNLGYSVDVKKNLTASDMTTELEAFAHRPEHKTSDSTFLVFMSHGIREGICGKKHSEQVPDILQLNAIFNMLNTKNCPSLKDKPKVIIIQACRGDSPGVVWFKDSVGVSGNLSLPTTEEFEDDAIKKAHIEKDFIAFCSSTPDNVSWRHPTMGSVFIGRLIEHMQEYACSCDVEEIFRKVRFSFEQPDGRAQMPTTERVTLTRCFYLFPGH
Take B2: the “activity in cleaving the YVAD substrate relative to CPP32” value in the assay with YVAD-AMC (SEQ ID NO:8) (ICEγ versus CPP32) is given as “about 3 fold”. Moreover, in the assay on YVAD-AMC (SEQ ID NO:8), the “ability to cleave the YVAD substrate” value is on record as “able to cleave”. Besides, the “cleavage of PARP” value in the assay with human PARP is given as “not cleaved”. The “ability to cleave the DEVD substrate” value in the assay with DEVD-AMC (SEQ ID NO:3) is “able to cleave”.

B3: ICE: mammalian interleukin-1 β converting enzyme, expressed from recombinant ICE baculovirus as control (protein)
chain: MADKVLKEKRKLFIRSMGEAPQAVQDNPAMPTSSGSEGNVKLCSLEEAQRIWKQKSAEIYPIMDKSSRTRLALIICNEEFDSIPRRTGAEVDITGMTMLLQNLGYSVDVKKNLTASDMTTELEAFAHRPEHKTSDSTFLVFMSHGIREGICGKKHSEQVPDILQLNAIFNMLNTKNCPSLKDKPKVIIIQACRGDSPGVVWFKDSVGVSGNLSLPTTEEFEDDAIKKAHIEKDFIAFCSSTPDNVSWRHPTMGSVFIGRLIEHMQEYACSCDVEEIFRKVRFSFEQPDGRAQMPTTERVTLTRCFYLFPGH
With B3, in the assay on Sf9 cells, the “characteristic signs of apoptosis (membrane blebbing, nuclear fragmentation and condensation, internucleosomal DNA cleavage)” value is “several characteristic signs of apoptosis”.

B4: Mch2β: alternatively spliced shorter Mch2 isoform, 204 amino acid ~23 kDa protein, SEQ ID NO:7 (protein)
chain: MSSASGLRRGHPAVSTVSHADADCFVCVFLSHGEGNHIYAYDAKIEIQTLTGLFKGDKCHSLVGKPKIFIIQACRGNQHDVPVIPLDVVDNQTEKLDTNITEVDAASVYTLPAGADFLMCYSVAEGYYSHRETVNGSWYIQDLCEMLGKYGSSLEFTELLTLVNRKVSQRRVDFCKDPSAIGKKQVPCFASMLTKKLHFFPKSN
B4: the “ability to cleave the YVAD substrate” value in the assay with YVAD-AMC (SEQ ID NO:8) is on record as “No detectable enzymatic activity”. In addition, in the assay with human PARP, the “cleavage of PARP” value is on record as “not cleaved”.

B5: CPP32: human Cpp32 (Mch1) apoptotic cysteine protease, expressed as GST-fusion protein (protein)
chain: MENTENSVDSKSIKNLEPKIIHGSESMDSGISLDNSYKMDYPEMGLCIIINNKNFHKSTGMTSRSGTDVDAANLRETFRNLKYEVRNKNDLTREEIVELMRDVSKEDHSKRSSFVCVLLSHGEEGIIFGTNGPVDLKKITNFFRGDRCRSLTGKPKLFIIQACRGTELDCGIETDSGVDDDMACHKIPVEADFLYAYSTAPGYYSWRNSKDGSWFIQSLCAMLKQYADKLEFMHILTRVNRKVATEFESFSFDATFHAKKQIPCIVSMLTKELYFYH
For the molecule B5, in the assay with YVAD-AMC (SEQ ID NO:8), the “ability to cleave the YVAD substrate” value is “able to cleave”. In addition, the “cleavage of PARP” value in the assay with human PARP is on record as “cleaved PARP”. In the assay on DEVD-AMC (SEQ ID NO:3) (from initial rate of the reactions, assuming similar amount of each enzyme in extracts), the “activity in cleaving the DEVD substrate relative to ICEγ or Mch2α” value is given as around 150 fold. Besides, in the assay on DEVD-AMC (SEQ ID NO:3), the “ability to cleave the DEVD substrate” value is reported as “able to cleave”.
